Experimental data reported in the nanobody polyreactivity screen of Harvey et al. (2022).

Test: yeast display, Sf9 membrane polyspecificity reagent, FACS + sequencing; frameworks hold sequencing errors
Method in brief: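 Galactose-induced (36–48 hours) yeast carrying a synthetic nanobody display library were exposed to 10% biotinylated, detergent-solubilized Sf9 membrane reagent at 4 °C for 1 hour. FACS followed streptavidin microbead enrichment, using low and high (top ~1%) gates for expression (anti-HA) and reagent binding (streptavidin). Colony PCR, MiSeq 2 × 250 sequencing and CDR-length filtering followed. Labels for polyreactivity reflect the gate of origin.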

| Sequence | polyreactivity (PSR sort gate) |
| --- | --- |
| QVQLVESGGGLVQAGGSLRLSCAASVSTFRTNAMGWYRQPPGKEREMVAAITLDGGSTYYADSVKGRFTISRDNEKNTVYLQMNSLKPEDTAVYYCAADVVSVVYLPFVNGGDYWGQGTQVTVSS | low polyreactivity |
| QVQLVESGGGLVQAGGSLRLSCAASGRIFYFYAMGWYRQAPGKERELVASISSGSSTNYADSVKGRFTISRDNAKNTVYLQMNSLKPEDTAVYYCAAQPWHGSRPRSYYWGQGTQVTVSS | high polyreactivity |
| QVQLVESGGGLVQAGGSLRLSCAASGFTFDDYAMGWYRQAPGKERELVAAIDDDSSTNYADSVKGRFTISRDNAKNTVYLQMNSLKPEDTAVYYCNARARVSGKWYNYWGQGTQVTVSS | high polyreactivity |
| QVQLVESGGGLVQAGGSLRLSCAASGRTFNLYAMGWSRQAPGKERELVARITSGGSTNYADSEKGRFTISRDNAKNTVYLQMNSLKPEDTAVYYCAASSYNRGDYWGQGTQVTVSS | high polyreactivity |
| QVQLVESGGGLVQAGGSLRLSCAASGFTFTRNAMGRYRQAPGKERELVAAITSSGGRTYYADSVKGRFTISRDNAKNTVYLQMNSLKPVDTAVYYCAVYPRYSLPARDYDYWGQGTQVTVSS | high polyreactivity |
| QVQLVESGGGLVQAGGSLRLSCAASGRTFSRYAMGWYRQAPGKERELVASITSRGGSTYYADSVKGRFTISRDNAKNTVYLQMNSLKPEDTAVYYCNVKPTYSTRYWEDYWGQGTQVTVSS | high polyreactivity |
| QVQIVESGGGLVQAVGSLRLSCAASGFTFTYNAMGWYRQAPGKERELVAAISSGGRTYYADSVKGRFTISRDNAKNTVYLQMNSLKPEDTAVYYCNADPDQYTLRSITNDEDYWGQGTQVTVSS | low polyreactivity |
| QVQLVESGGGLVQAGGTLRLSCAASGYIFPAYVMGWYRQAPGKERELVAAITSGGGTYYADSVKGRFTISRDNAKYTVYLQMNSLKPEDTAVYYCAARYTQRPRRNYWGQGTQVTVSS | high polyreactivity |
| QVQLVESGGGLVQAGGSLRLSCAASGSTFKIYAMGWYRQAPGKERELVASIRGRGGSTYYADSVKGRFTISRDNAKNTVYLQLNSLKPEDTAVYYCNATYGHRYAPGISYDYWGQGSQVTVSS | high polyreactivity |
| QVQLVESGGGLVQAGGSLRLSCAASGYTFRYYAMVWYRQAPGKEREMVAAINGGDITNYADSVKGRFTISRDNAKNTVYLQMNSLKPVDTAVYYCAADGEDSLWTCYDYDYWGQGTQVTVSS | low polyreactivity |
| QVQLVESRGGLVQAGGSLRLSCAASGRTLKYNVMGWYRQAPGKERELVASITSRGGSTRYADSVKGRFTISRDNAKNTVYLQMNSLKPEDTAVYYCAARYTTARSSYDYWGQGTQVTVSS | high polyreactivity |
| QVQLVESGGGLVQAGGSLRLSCAASGRIFSFNAMGWYRQAPGKERELVAAISWSTGSTFYADSVKGRFTISRDNAKNTVYVQMNSLKPEDTAFYYCAREYYYRRGFFLRGYWGQGTQVTVSS | high polyreactivity |
| QVQFVESGGALVQAGGSLRLSCAASGSTFQGYAMGWYRQAPGKETELVAAISRSGGRTYYADSVTGRFTISRDNAKNTVYLQMISLKPEDTAVYYCAAEGHELTDGDSWGQGTQVTVSS | low polyreactivity |
| QVQLVESGGGLVQAGGSLRLSCADSGTIFALYAMGWYRQAPGKEREFVAAIRRGTSTKYADSVKGRFTISRDNAKNTVYLQMNSLKPEDTAVYYCNARYYYSSSISRWYDYWGQGTQVTVSS | high polyreactivity |
| QVQLVESGGGLVQAGGSLRLSCAASGYTFVRYAMGWYRQAPGKEREFVASISTSGGSTYYADSVKGRFTISRDNAKNTVYLQMNSLKPEDTAVYYCAAGHVVRRPYLIYDYWGQGTQVTVSS | high polyreactivity |
| QVQLVESGGGLVQAGGSLRLSCAASGRTFRFDAMGWYRQAPGKEREFVAAISRSVGSTYYADSVKGRFTISRDNAKTTVYLQMNSLKPEDTAVYYCNGDYRSRYVEYDYWGQGTQVTVSS | high polyreactivity |
| QDQHVESGGGLVQAGGSLRLSCDASGFIFPYYVMGWYRQAPGKERELVAGISSGGRTNYADSVKGRFTISRDNAKNTVYLQMISLKPEDTAVYYCNDRWYRYPPRVRLYYWGQGTQVTVSS | high polyreactivity |
| QVQLVESGGCLVQAGGSLRLSCAASGRTFYGNDMGWYSQAPGTERELVAAISSSGGSTYYADSVKGRGTISRDNGKNTVYLQMKSLKPEDTAVYYCNAYWRGFRLSYYEDSYYWGQGTQVTVSS | high polyreactivity |
| QVQLVESGGGLVQAGGSLRLSCAASGRIFSYNAMGWYRQAPGKERELVAAISSDGSTYYADSVKGRFTISRDNAKNTVYLQMNSLKPVDTAVYYCAARQVVWFDYTTAQVGSYKVNYWGQGTQVTVSS | low polyreactivity |
| QVQLVESGGGLVQAGGSLRLSCAASGIILYYYAMGWYRQAPGKERELVAAISSGGNTYYADSVKGRFTISRDNAKNTVYLQMYSLKPEDTAVYYCAAVTVIGGEYDYWGQGTQVTVSS | low polyreactivity |
| QVQLEESGGGLVQAGGSLRLSCAASGRIFTWYTMGWYRQAPGKEREFVAAITRSGTSTYYADSVKGRFTISRDNAKNTVYLQMNSLKPEDTAVYYCAAGKPRSKYWYDYWGQGTQVTVSS | high polyreactivity |
| QVQLVESGGGLVQAGGSLRLSCAASGSTFVKYAMGWYRQAPGKERELVARISSSGGSTYYADSVKGRFTISRDNAKNTVYLQMNSLKPEDTAVYYCAAPSLIAKYDYWGQGTQVTVSS | high polyreactivity |

| Sequence | polyreactivity (PSR sort gate) |
| --- | --- |
| QVQLVESGGGLVQAGGSLRLSCAASGSTFKRNAMGWYRPATGKERELVATITRRGGSTYADSVKGRFTISRDNAKNTVYLQMNSLKPEDTAVYYCNADSRPLSTYYYWGQGTQVTVSS | low polyreactivity |
| QVQLVESGGGLVQAGGSLRLSCAASGSIFAYYAMGWYRQAPGKERELVAAISYSGDGTYYADSVKGRFTISRDNAKNTVYFQMNSLKPEDTAVYYCAADWDGYFYKSNWDYNYWGQGTQVTVSS | low polyreactivity |
| QVQHVESGRGLVQAGGSLRLSCAASGSIFTSNAMGWYRQAPGIERELVAAISIGGGTYYADSVKGRFTISRDNAKNTVYLQMNSLKPEDTAVYYCAARVGGRRVRFNYWGQGTQVTVSS | high polyreactivity |
| QVQLVESGGGLVQAGGSLRLSCAASGSIFAKYAMGWYRQAPGKERELVAAITSGGSTNYADSVKGRFTISRDNAKNTVYLQMTSLKPEDTAVYYCAARNHYRGYYWGQGTHVTVSS | low polyreactivity |
| QVQLVESGGGLVQAGGSLRLSCAASGFIFTRNAMGWYRQAPGKERELVAAITSSGGSTYYADSVKGRFTISRDNAKYTVYLQMNCLKPEDTAVYYFAADDIQTYGDDYWGQGTQVTVSS | high polyreactivity |
| QVQLVESGGGLVQAGGSLRLSCAASGRTFGYYVMGWYRQAPGKERELVAAISRSGGTTYYADSVKGRFTISRDNAKNTVYLQMNSLKPEDTAVYYCATDSRTGYDYWGQGTQVTVSS | high polyreactivity |
| QVQLVESGGGLVHAGCSLRLSCAASGFTFGVYAMGWYRQAPGKERELVAAISTTVGSTYYADSVKGRFTISRDNAKNTFYLQMNSLKPEDTAVYYCAAEYTVYINYYIYEYWGQGTQVTVSS | low polyreactivity |
| QVQLVESGGGLVQAGGSLRLSCAASGSTFRAYAMGWYRQAPGTEWELVAAISAGGSTNYADSVKGRFTISRDHAKNTVSLQMNCLKRDDTAVYYCAKGWYYVSPYGYRKRVYYWGQGTQVTVSS | high polyreactivity |
| QVHLVESGGGLVQAGGILRLSCSASGRIFSVNAMGWYRQSPGKERELVAAITTRGGTTYYADSVKGRFTISRDNAKNTVYLLMNSLKPEDTAVYYCAAESSWYVYWEWAHDYWGQGTQVTVSS | low polyreactivity |
| QLQLVESGGGLVQAGGSLRLSCAASGRIFYYYTMGWYRQAPGKERELVARITGLTGRTYYADSVKGRFTISRDNAKNTVYLQMNSLKPEDTAVYYCNAVLGYYTYDYWGQGTQVTVSS | high polyreactivity |
| QVQLVESGGGLVQAGGSLRLSCAASGRIFIVNAMGWYRQATGKERELVAAISYRGGSTYYADSVKGRFTISRDNAKNTVYLQMNRLKPEDTAVYYCAADRYSYLGYPYEYEYWGQGTQVTVSS | low polyreactivity |
| QVQLHERGDGLVQAVGSLRLSCAASGYISGYYYMGWYRQATGKERELVAGIDALGSSTNYADCVKGRFTISRDNAKNTVYLQMNSLKPEDTAVYYCAARPDGDRLFSYWGQGTQVTVSS | low polyreactivity |
| QVQLVESGGGLVQAGGSLRLSCAASGIIFRLYAMGWYRQAPGKERELVAAISYRGGSTYYADSVKGRFTISRDNAKNTVYLQMNSLKPEDTAVYYCAGRNPRYSFYYWGQGTQVTVSS | high polyreactivity |
| QVQLVESGGGLVQAGGSLRLSCAASGSTFDKYAMGWYRQAPRKERELVAAITWGGGSTYYADSVKGRITISRDNAKNTVYLPMNSLKPEDTAVYYCAAEQRSSVLYDSWGQGTQVTVSS | low polyreactivity |
| QVQLVESGGGLVQAGGSLRLSCAASGRIFGINSMGWYRQAPGKERELVAAITGGGSTYADSVKGRFTISRDNAKNTVYLQMNSLKPEDTAVYYCAAVSPRRYRYDYWGQGTQVTVSS | low polyreactivity |
| QVQLQESGGGLVQAGGSLRLSCAASGTISDSGLMGWYRQAPGKERELVAGISSGGITNYADSVKGRFTISRDNAKNSVDLQMNSLKPEDTAVYWGRGTQVTVSS | low polyreactivity |
| QVQLVESGGGLVQAGGSLRLSCAASGSIFRYYAMGWYRQAPGKERELVAAITGRGGSTYYADSVKGRFTISRDNAKNTVYLQMNSLKPEDTAVYYCADYIDANVHRFDYWGQGTQVTVSS | low polyreactivity |
| QVQLVESGGGLVQAGGSLRLSCAASGFTFRYNDMGWYRQAPGKERELVAVISSDGTTNYADSVKGRFTISRDNAKNTVYLQMNSLKPEDTAVYYCAAWEFRGNAYYVYAFDYWGQGTQVTVSS | low polyreactivity |
| QVQLVESGGGLVQAGGSLRLSCAASGRTFYVNAMGWYRQAPGKERELVARISSSGITYYADSVKGRFTISRDNAKNTVYLQMNSLKPEDTAVYYCAAEYRSYSTLNRKFWYSPEYDYWGQGTQVTVSS | low polyreactivity |
| QVQHVESGGGLLQAGGSLRLTCAASGSTFGTYAMGWYRQAPGKERELVATISIGGITYYADSVKGRFTISRDNAKNTVYLQLNSLKPEDTAVYYCAKDVNDATSRSDPSGDDYWGQGTQVTVSS | low polyreactivity |
| QVQLVESGGGLVQAGGSLRLSCAASGSIFYENAMGWYRQAPGKERELVAAIRDSGGSTYYADSVKGRFTISRDNAKNTVYLQMNSLKPEDTAVYYCNAVPVYYDYDYWGQGTQVTVSS | low polyreactivity |
